Assay [1] concerns the target T1, THP-1 lysate derived human trimeric ARG2 (human, UniProt P78540 23-354, limits assumed).
T1 sequence (looked up): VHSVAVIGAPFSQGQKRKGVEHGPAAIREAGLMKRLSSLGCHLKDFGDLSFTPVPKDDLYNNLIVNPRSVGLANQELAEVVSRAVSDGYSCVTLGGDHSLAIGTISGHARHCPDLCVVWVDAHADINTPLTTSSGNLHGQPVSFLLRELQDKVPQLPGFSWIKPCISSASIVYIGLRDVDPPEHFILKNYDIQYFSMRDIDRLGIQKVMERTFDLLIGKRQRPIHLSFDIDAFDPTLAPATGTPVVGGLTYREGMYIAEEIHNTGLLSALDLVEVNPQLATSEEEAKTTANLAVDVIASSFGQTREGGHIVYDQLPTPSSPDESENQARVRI
Kind of assay: cell-based or functional assay.

The target in assay [2] is T2, recombinant human trimeric ARG2 enzyme (construct not given) (human, UniProt P78540 23-354).
T2 sequence (looked up): T1 sequence (looked up)
Kind of assay: cell-based or functional assay.

Assay [3] concerns the target T2, recombinant human trimeric ARG2 enzyme …. Kind of assay: cell-based or functional assay. This is another data set of the same source.
Assay [4] addresses T1, THP-1 lysate derived human trimeric ARG2. Kind of assay: cell-based or functional assay. The source holds these as a separate data set.
The target in assay [5] is T2, recombinant human trimeric ARG2 enzyme …. Kind of assay: cell-based or functional assay. This is another data set of the same source.
The target in assay [6] is T3, biotinylated recombinant human trimeric ARG2 enzyme (Avi-huARG2-His10) (human, UniProt P78540 23-354, biotinylated).
T3 construct: also called avi-Arg2-His10; bio-ARG2
T3 chain: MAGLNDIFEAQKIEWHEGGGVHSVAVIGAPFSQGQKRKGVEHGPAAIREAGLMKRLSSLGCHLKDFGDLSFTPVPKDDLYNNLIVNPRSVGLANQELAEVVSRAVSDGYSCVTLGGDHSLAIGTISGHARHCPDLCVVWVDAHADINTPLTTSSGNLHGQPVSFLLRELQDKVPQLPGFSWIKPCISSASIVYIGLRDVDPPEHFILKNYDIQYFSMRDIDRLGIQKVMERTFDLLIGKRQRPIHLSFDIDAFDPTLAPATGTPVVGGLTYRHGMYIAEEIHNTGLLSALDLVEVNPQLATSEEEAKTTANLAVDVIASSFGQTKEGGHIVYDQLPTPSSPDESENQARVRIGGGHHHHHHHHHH
Kind of assay: HTRF epitope competition, scFv titrated, competitor C0020187 IgG, on biotinylated human trimeric ARG2.

Changes are numbered by the printed parent chain. Where two headings read alike, the source gives them in different places.

B1: C0021144 recombinant human IgG1 (antibody, V domains shown)
VH: EVQLLESGGGLVQPGGSLRLSCAASGFTFRYDYHVWVRQAPGKGLEWVSAISGSGGSTYYADSVKGRFTISRDNSKNTLYLQMNSLRAEDTAVYYCARLRADLGLYMDLWGRGTLVTVSS
VL: QSVLTQPPSVSAAPGQKVTVSCSGSSSNIGNHHVSWYQQLPGTAPKLLIYDTTVLSSGVPDRFSGSKSGTSATLGITGLQTGDEADYYCGTWDELTSNLVFGGGTKLTVL
For B1, the “THP-1 lysate ARG2 EIA IC50” value in assay [1] is 10.9 nM.

B2: C0021180 recombinant human IgG1 (antibody, V domains shown)
VH: B1 VH with D32E, Y33V, H34A, V35A, S54P, G55I, G56P, S57K, T58G
VL: QSVLTQPPTVSAAPGRKVTISCSGSSSNIGDHHVSWYQQLPGAAPKLLIYDTDHMASGIPDRFSGSRSGTSATLGITGLQTGDEADYYCGTWDSSLSALVFGGGTKLTVL
B2: in assay [1], the “THP-1 lysate ARG2 EIA IC50” value turned out to be 4.59 nM. Also, in assay [2], the “EC50, In Presence of rhARG2 (T cell proliferation)” value (“EC50, In Presence of rhARG2” for short) was 137 nM and the “Maximum % Proliferation, In Presence of rhARG2” value (from here on “Maximum % Proliferation”) worked out at 91%.

B3: C0021181 recombinant human IgG1 (antibody, V domains shown)
VH: B1 VH with Q13R, G26E, G66S
VL: B1 VL with T19A, N31S, H33Y, T52N, T53S, V54E, L55R, S56T, V59I, K106R
For the molecule B3, the “THP-1 lysate ARG2 EIA IC50” value in assay [1] stood at 6.93 nM.

B4: C0021177 recombinant human IgG1 (antibody, V domains shown)
VH: B1 VH with D32E, Y33V, H34A, V35A, S54P, G55A, G56P, S57K, T58G
VL: B1 VL with V3E, S9T, V10A, V20I, H33Y, V59I
Take B4: the “THP-1 lysate ARG2 EIA IC50” value in assay [1] was 5.17 nM. Further, in assay [2], the “EC50, In Presence of rhARG2” value worked out at 86 nM and the “Maximum % Proliferation” value turned out to be 84%.

B5: C0021155 recombinant human IgG1 (antibody, V domains shown)
VH: B1 VH with A23E, S63P
VL: B1 VL with Q1R, V20I, H33Y, V59I, K106R
Take B5: in assay [1], the “THP-1 lysate ARG2 EIA IC50” value was determined as 9.64 nM.

B6: C0021061 recombinant human IgG1 (antibody, V domains shown)
VH: EVQLLESGGGLVQPGGSLRLSCAASGFTFSSYAMSWVRQAPGKGLEWVSAKPTDAGSTYYADSVKGRFTISRDNSKNTLYLQMNSLRAEDTAVYYCARLRADLGLYMDLWGRGTLVTVSS
VL: QSVLTQPPSVSAAPGQKVTISCSGSSSNIGNHYVSWYQQLPGTAPKLLIYNTVYPKSGIPDRFSGSKSGTSATLGITGLQTGDEADYYCGTWDSSLSALVFGGGTKLTVL
Consider B6, for which, in assay [3], the “EC50, In Presence of rhARG2” value is 113 nM and the “Maximum % Proliferation” value is 83%. In assay [1], the “THP-1 lysate ARG2 EIA IC50” value was determined as 5.81 nM. For the same molecule, in assay [4], the “IC50 (M) THP-1 ARG2 (healthy human plasma)” value (from here on “IC50 … (healthy human plasma)”) amounted to 2.9e-09 M and the “IC50 (M) THP-1 ARG2 (no plasma)” value stood at 6.79e-09 M. In assay [2], the “EC50, In Presence of rhARG2” value is 149 nM and the “Maximum % Proliferation” value was determined as 110%.

B7: C0021133 recombinant human IgG1 (antibody, V domains shown)
VH: B1 VH with Y33H
VL: B1 VL with H33Y, V59I
Turning to B7, in assay [3], the “EC50, In Presence of rhARG2” value was 101 nM and the “Maximum % Proliferation” value was found to be 73%. Also, the “THP-1 lysate ARG2 EIA IC50” value in assay [1] amounted to 7.38 nM. In addition, in assay [4], the “IC50 … (healthy human plasma)” value was determined as 3.7e-09 M and the “IC50 (M) THP-1 ARG2 (no plasma)” value was determined as 6.68e-09 M.

B8: C0021141 scFv (scFv, V domains shown)
VH: B1 VH with R30Y, Y31P, Y33P, H34Q, V35G, I51Y, S52G, G53Y, S54G, G55I
VL: B6 VL with K17E, G30D, N51D, T52N, V53S, Y54E, P55R, K56P
notes: scFv
In the case of B8, the “Trimeric human ARG2 EIA IC50” value in assay [5] worked out at 109 nM. Moreover, the IC50 in assay [6] was found to be 51.1 nM.

B9: C0021128 scFv (scFv, V domains shown)
VH: B1 VH with R30Q, D32E, Y33V, H34A, V35A, S54P, G55I, G56P, S57K, T58G
VL: B6 VL with N51D, T52N, V53A, Y54I, P55E, K56S, E84G, S95N
notes: scFv
On to B9, for which, in assay [5], the “Trimeric human ARG2 EIA IC50” value came out at 169 nM. For the same molecule, in assay [6], the IC50 was determined as 44.5 nM.

B10: C0021133 scFv (scFv, V domains shown)
VH: B1 VH with Y33H
VL: B1 VL with H33Y, V59I
notes: scFv
As to B10, the “Trimeric human ARG2 EIA IC50” value in assay [5] worked out at 281 nM. Besides, the IC50 in assay [6] is 43.3 nM.

B11: C0021022 recombinant human IgG1 (antibody, V domains shown)
VH: EVQLLESGGGLVQPGGSLRLSCAASGFTFSSYAMSWVRQAPGKGPEWVSAISGFSPYYADSVKGRFTISRDNSKNTLYLQMNSLRAEDTAVYYCARLRADLGLYMDLWGRGTLVTVSS
VL: B6 VL with N51D, T52N, V53S, Y54E, P55R, K56P
As to B11, in assay [3], the “EC50, In Presence of rhARG2” value worked out at 132 nM and the “Maximum % Proliferation” value was found to be 77%. Further, in assay [4], the “IC50 … (healthy human plasma)” value was found to be 2.71e-09 M and the “IC50 (M) THP-1 ARG2 (no plasma)” value was determined as 5.81e-09 M.

B12: C0021065 recombinant human IgG1 (antibody, V domains shown)
VH: B11 VH with K74R
VL: B6 VL with N51D, V53D, Y54H, P55M, K56A
Regarding B12, in assay [3], the “EC50, In Presence of rhARG2” value was 136 nM and the “Maximum % Proliferation” value worked out at 87%. Besides, in assay [4], the “IC50 … (healthy human plasma)” value turned out to be 2.98e-09 M and the “IC50 (M) THP-1 ARG2 (no plasma)” value came to 5.99e-09 M.

B13: C0021139 recombinant human IgG1 (antibody, V domains shown)
VH: B1 VH with R30Q, H34Q
VL: B1 VL with V20I, H33Y, T52N, T53S, V54E, L55R, S56T, V59I
For the molecule B13, in assay [3], the “EC50, In Presence of rhARG2” value was 111 nM and the “Maximum % Proliferation” value was determined as 67%. In assay [4], the “IC50 … (healthy human plasma)” value was 2.02e-09 M and the “IC50 (M) THP-1 ARG2 (no plasma)” value came to 5.75e-09 M.

B14: C0021092 recombinant human IgG1 (antibody, V domains shown)
VH: B6 VH with S31R, K51H, P52T, T53H, D54S, A55P
VL: B6 VL with T52S, Y54A, P55R, K56P
In the case of B14, in assay [3], the “EC50, In Presence of rhARG2” value came out at 116 nM and the “Maximum % Proliferation” value amounted to 77%. In assay [4], the “IC50 … (healthy human plasma)” value is 2.82e-09 M and the “IC50 (M) THP-1 ARG2 (no plasma)” value amounted to 6.56e-09 M.

(Values after patent US20220403048A1 (CANCER RESEARCH TECHNOLOGY, published 2022).)
